Assays:
[1] = target: some of the FcγR expressing cell lines; assay: flow cytometry on CHO cells stably expressing FcγR, anti-human IgG secondary (FIG. 30B)
human CD137 on cells [2] = target: T1, human CD137 on cells (human, UniProt Q07011 24-255); assay: cell-based or functional assay
human CD137 on cells [3] = target: T1, human CD137 on cells; assay: cell-based or functional assay; remark: listed apart in the source
human CD137 on cells [4] = target: T1, human CD137 on cells; assay: flow cytometry, CD8 T cells gated from CD3-stimulated human PBMC, exp 1, n=3 donors
Protocol: (§1) FACS staining and analysis of CD8 T cells: Following 48 h of incubation with or without CD3, human and cynomolgus PBMC were harvested, pooled, recounted and diluted in FACS buffer (PBS +0.5% BSA, 0.05% NaN₃) to a concentration of 5×10⁶ cells/mL. 50 μL (0.25×10⁶ cells) of cell solution was added to a 96-well FACS staining plate (Falcon #351190). Following 10 min of Fc-blocking in RT using Beriglobin (hIgG, 200 μg/mL), cells were washed in FACS buffer and then incubated for 1 h in 4° C. with 100 μL of the biotinylated ALG.APV-210 or negative control. The antibodies were added in a serial dilution starting either at 5 μg/mL titrating down in a 12 step 1/3 dilution down to 0.0003 μg/mL (exp 1) or 1 μg/mL titrating down in a 12 step 1/2 dilution down to 0.0005 μg/mL (exp 2). […] Cells were analysed for ALG.APV-210 binding using flow cytometry by gating on viable, single cells expressing CD3 and CD8. MFI values (FMO subtracted) from 2 independent experiments as well as normalized pooled data from 2 experiments and EC₅₀-values were determined and plotted using GraphPad Prism 7, non-linear regression log (agonist) vs. normalized response—variable slope, n=6 donors/group.

human CD137 on cells [5] = target: T1, human CD137 on cells; assay: flow cytometry, CD8 T cells gated from CD3-stimulated human PBMC, exp 2, n=3 donors
Protocol: as §1

[6] = target: T2, cynomolgus CD137 on cells (cynomolgus macaque, UniProt A9YYE7 24-254); assay: flow cytometry, CD8 T cells gated from CD3-stimulated cynomolgus PBMC, exp 1, n=3 donors
T2 construct: whole, on cells; also called cynomolgus macaque CD137; cynomolgus 4-1BB
Protocol: (§2) Isolation and stimulation of cynomolgus PBMC: Cynomolgus PBMC were isolated from 20 mL of cynomolgus monkey blood from 3 different donors, obtained from Silabe, France by density gradient centrifugation using Lympholyte-mammal (Cedarlane labs) according to manufacturer's instructions. Non-tissue treated 96 well plates were pre-coated overnight at 4° C. with 3 μg/mL α-monkey CD3, clone FN-18 (Invitrogen #APS0301). The cynomolgus PBMC were then stimulated identically as the human PBMC described above
(§3) FACS staining and analysis of CD8 T cells: Following 48 h of incubation with or without CD3, human and cynomolgus PBMC were harvested, pooled, recounted and diluted in FACS buffer (PBS +0.5% BSA, 0.05% NaN₃) to a concentration of 5×10⁶ cells/mL. 50 μL (0.25×10⁶ cells) of cell solution was added to a 96-well FACS staining plate (Falcon #351190). […] Cells were analysed for ALG.APV-210 binding using flow cytometry by gating on viable, single cells expressing CD3 and CD8. MFI values (FMO subtracted) from 2 independent experiments as well as normalized pooled data from 2 experiments and EC₅₀-values were determined and plotted using GraphPad Prism 7, non-linear regression log (agonist) vs. normalized response—variable slope, n=6 donors/group.

[7] = target: T2, cynomolgus CD137 on cells; assay: flow cytometry, CD8 T cells gated from CD3-stimulated cynomolgus PBMC, exp 2, n=3 donors
Protocol: as §2, §3

human CD137 on cells [8] = target: T1, human CD137 on cells; assay: flow cytometry, % positive cells of CD8 T cells gated from CD3-stimulated human PBMC, exp 1, n=3 donors
Protocol: as §1

[9] = target: T2, cynomolgus CD137 on cells; assay: flow cytometry, % positive cells of CD8 T cells gated from CD3-stimulated cynomolgus PBMC, exp 1, n=3 donors
Protocol: as §2, §3

human CD137 on cells [10] = target: T1, human CD137 on cells; assay: flow cytometry, normalized % positive cells of CD8 T cells from CD3-stimulated human PBMC, pooled data of 2 exp, n=6 donors
Protocol: as §1

T1 sequence (Q07011 24-255 limits assumed): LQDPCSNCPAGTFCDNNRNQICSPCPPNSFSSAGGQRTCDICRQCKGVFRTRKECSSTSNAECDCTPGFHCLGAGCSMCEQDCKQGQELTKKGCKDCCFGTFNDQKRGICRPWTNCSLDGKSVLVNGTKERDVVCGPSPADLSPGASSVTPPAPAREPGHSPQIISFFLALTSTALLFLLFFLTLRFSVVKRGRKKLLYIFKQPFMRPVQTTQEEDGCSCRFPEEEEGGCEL
T2 sequence (A9YYE7 entry or part of it): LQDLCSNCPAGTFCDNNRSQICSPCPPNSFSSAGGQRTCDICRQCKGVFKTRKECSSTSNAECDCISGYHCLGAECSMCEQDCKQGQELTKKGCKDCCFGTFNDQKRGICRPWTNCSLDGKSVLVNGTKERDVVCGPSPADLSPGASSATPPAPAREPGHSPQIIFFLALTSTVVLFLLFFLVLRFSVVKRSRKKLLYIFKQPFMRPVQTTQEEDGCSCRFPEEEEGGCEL

Question: control human IgG1 molecule (antibody) was tested. Which concentration at which significant binding was observed [1] did it give?
Answer: 4 nM

B1: ALG.APV-210 (bispecific antibody)
chain: EVQLLESGGGLVQPGGSLRLSCAASGFTFSHGSMYWVRQAPGKGLEWVSSISSGSGSTYYADSVKGRFTISHDNSKNTLYLQMNSLRAEDTAVYYCARSSYYGSYYSIDYWGQGTLVTVSSGGGGSGGGGSGGGGSGGGGSDIQMTQSPSSLSASVGDRVTITCRASQSISSYLNWYQQKPGKAPKLLIYAASSLQSGVPSRFSGSGSGTDFTLTISSLQPEDFATYYCQQYYDNLPTFGQGTKLEIKEPKSSDKTHTCPPCPAPEAAGAPSVFLFPPKPKDTLMISRTPEVTCVVVDVSHEDPEVKFNWYVDGVEVHNAKTKPREEQYNSTYRVVSVLTVLHQDWLNGKEYKCAVSNKALPAPIEKTISKAKGQPREPQVYTLPPSRDELTKNQVSLTCLVKGFYPSDIAVEWESNGQPENNYKTTPPVLDSDGSFFLYSKLTVDKSRWQQGNVFSCSVMHEALHNHYTQKSLSLSPGSGGGGSGGGGSGGGGSPSEVQLLESGGGLVQPGGSLRLSCAASGFTFSSYAMSWVRQAPGKCLEWVSAISGSGGSTYYADSVKGRFTISRDNSKNTLYLQMNSLRAEDTAVYYCARYYGGYYSAWMDYWGQGTLVTVSSGGGGSGGGGSGGGGSGGGGSDIQMTQSPSSLSASVGDRVTITCRASQSISSFLNWYQQKPGKAPKLLIYAASSLQSGVPSRFSGSGSGTDFTLTISSLQPEDSATYYCQQTYGYLHTFGCGTKLEIKR
Question: For B1, which “maximal IFNγ release with CT26-h5T4^low cells relative to CT26-h5T4^high cells” value (human CD137 on cells [2]) is on record?
Answer: 82%

Question: What about the “maximal IFNγ release with CT26-wt cells relative to CT26-h5T4^high cells” value (human CD137 on cells [2]) of the same molecule?
Answer: 7%

Question: And the “EC50 (nM), IFNγ release of human CD8 T cells with CT26-h5T4^high cells” value (human CD137 on cells [3])?
Answer: 0.41 nM

Question: And the “EC50 (nM), IFNγ release of human CD8 T cells with CT26-h5T4^low cells” value (human CD137 on cells [3])?
Answer: 0.24 nM

B2: biotinylated ALG.APV-210 (bispecific antibody)
chain: EVQLLESGGGLVQPGGSLRLSCAASGFTFSHGSMYWVRQAPGKGLEWVSSISSGSGSTYYADSVKGRFTISHDNSKNTLYLQMNSLRAEDTAVYYCARSSYYGSYYSIDYWGQGTLVTVSSGGGGSGGGGSGGGGSGGGGSDIQMTQSPSSLSASVGDRVTITCRASQSISSYLNWYQQKPGKAPKLLIYAASSLQSGVPSRFSGSGSGTDFTLTISSLQPEDFATYYCQQYYDNLPTFGQGTKLEIKEPKSSDKTHTCPPCPAPEAAGAPSVFLFPPKPKDTLMISRTPEVTCVVVDVSHEDPEVKFNWYVDGVEVHNAKTKPREEQYNSTYRVVSVLTVLHQDWLNGKEYKCAVSNKALPAPIEKTISKAKGQPREPQVYTLPPSRDELTKNQVSLTCLVKGFYPSDIAVEWESNGQPENNYKTTPPVLDSDGSFFLYSKLTVDKSRWQQGNVFSCSVMHEALHNHYTQKSLSLSPGSGGGGSGGGGSGGGGSPSEVQLLESGGGLVQPGGSLRLSCAASGFTFSSYAMSWVRQAPGKCLEWVSAISGSGGSTYYADSVKGRFTISRDNSKNTLYLQMNSLRAEDTAVYYCARYYGGYYSAWMDYWGQGTLVTVSSGGGGSGGGGSGGGGSGGGGSDIQMTQSPSSLSASVGDRVTITCRASQSISSFLNWYQQKPGKAPKLLIYAASSLQSGVPSRFSGSGSGTDFTLTISSLQPEDSATYYCQQTYGYLHTFGCGTKLEIKR
modifications: biotinylated (sites not given)
notes: also called ALG.APV-210 (biotinylated for FACS detection)
Question: B2 was tested. Which “EC50 (read off the curve)” value (human CD137 on cells [4]) did it give?
Answer: ~0.3 nM

Question: What about the “EC50 (read off the curve)” value (human CD137 on cells [5]) of the same molecule?
Answer: ~0.2 nM

Question: And the “EC50 (read off the curve)” value [6]?
Answer: ~0.3 nM

Question: What about the “EC50 (read off the curve)” value [7] of the same molecule?
Answer: ~0.2 nM

Question: And the “EC50 (read off the curve)” value (human CD137 on cells [8])?
Answer: ~0.03 nM

Question: What about the “EC50 (read off the curve)” value [9] of the same molecule?
Answer: ~0.02 nM

Question: And the EC50 (human CD137 on cells [10])?
Answer: 0.027 nM
